Results from PMC10106849.

Target: T1, RsCDF3 (Raphanus sativus, UniProt A0A6J0K2F2 1-435)
T1 sequence: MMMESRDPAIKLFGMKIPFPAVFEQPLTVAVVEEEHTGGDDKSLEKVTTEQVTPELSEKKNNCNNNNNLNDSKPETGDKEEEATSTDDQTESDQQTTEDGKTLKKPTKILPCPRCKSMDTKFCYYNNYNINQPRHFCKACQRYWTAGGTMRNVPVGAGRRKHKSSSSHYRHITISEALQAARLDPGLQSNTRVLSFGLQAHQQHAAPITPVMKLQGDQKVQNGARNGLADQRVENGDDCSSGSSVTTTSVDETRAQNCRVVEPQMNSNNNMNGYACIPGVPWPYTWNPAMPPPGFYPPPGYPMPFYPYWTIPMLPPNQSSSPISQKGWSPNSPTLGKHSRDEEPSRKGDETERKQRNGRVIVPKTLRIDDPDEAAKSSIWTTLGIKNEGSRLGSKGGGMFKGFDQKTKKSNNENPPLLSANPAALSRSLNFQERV
Experiment: competition

B1: mP1 mutated probe (dsDNA)
DNA 1: AATACACATTTATAATGTCTAGTTAAACTTAC
DNA 2: GTAAGTTTAACTAGACATTATAAATGTGTATT
- binding result: no binding
